Measured values as given in the supplement of paper PMC9170038.

System: K4 kissing-loop RNA reporter
Test: apparent KD of K4 kissing-loop reporter; higher = weaker reporter binding
Settings: Eterna round: R107
Procedure: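 RNA-MaP round R107: designed RNA switches with theophylline, tryptophan, arginine or FMN aptamers are transcribed on-chip within common flanks. They are titrated with a labelled K4 kissing-loop RNA reporter in RNA-MaP buffer (100 mM Tris pH 7.5, 80 mM KCl, 4 mM MgCl2), without ligand or with the indicated ligand. Median apparent KD per design.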

[1] = input ligand: theophylline 20 uM
[2] = input ligand: tryptophan 2.4 mM
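Further: bound reporter read as fluorescence of individual clusters on recovered sequencing chips by microscopy, with normalized cluster intensities fitted with a binding model.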

Row | Sequence | apparent KD of K4 kissing-loop reporter (input ligand: FMN 200 uM) | apparent KD of K4 kissing-loop reporter (input ligand: arginine 13.2 mM) | apparent KD of K4 kissing-loop reporter (input ligand: none) | apparent KD of K4 kissing-loop reporter [1] | apparent KD of K4 kissing-loop reporter [2]
1 | GCUGCCAUGGCAGGAUAUAUAAAUGCUGAGUGAUGUUCUGCAUCAUAUGUCCCUGACCGCGGCGGUGUAGAAGGGCCAUGGCAGC | 135 nM | 93 nM | 107 nM | 97.1 nM | 103 nM
2 | GGAAAUCUUGCCGAUACCAGAUCGCGCGGCCAUUGCUAGUGAUGUUGGCAAUAAGUACUCAUCCCUUGGCAGCGGUAAGGCAGUG [theeternabot_sameState_KL_Theo_B_23] | 390 nM | 293 nM | 359 nM | 195 nM | 280 nM
3 | GGAAGGAAGGAAACCAACCAACCAACCGAUACCAGCGGAAGAGAACGCCCUUGGCAGCGGAGAAAGCCAGUGAUGUUGGAAAGAA | 324 nM | 224 nM | 402 nM | 300 nM | 318 nM
4 | GGAAUGCUGUAAGGAUAUCUCGGACGGUUACUCCGUUUCUCGCGUGUAAGAAUCUGAGUGAUGUUUAGAGAAGGUACGCUGGUUA [theeternabot_exclusion_KL_FMN_B_21] | 178 nM | 233 nM | 240 nM | 225 nM | 149 nM
5 | GGACACUAGGAAACUAGUGUCUCAACUGAAGGAGCGUGAAUAGUCACAGGUAGGUCGCAGUUUGUUAGUGAUGUUGACAUGAGUU [#16 K4 Arginine A Same State] | 302 nM | 394 nM | 514 nM | 439 nM | 277 nM
6 | GGAGGGAUCUCGGCCGCCACUCGUGGGAAAUGGGCCUCAGGGAUAUAGUGAUGUUAUGUAAAGAAGAGGACCGGGAGAAGGAAGG [ExTryptoB.Dg] | 319 nM | 269 nM | 330 nM | 366 nM | 240 nM
7 | GGAGUUACCUGGGAUACCAGUCGGAGGCCCAGAGCUCGGAGUGAUGUUCUGGGAUGUUUCGGCCCUUGGCAGCUCUGGGUCUCCC [#2 Exclusion - Theophylline B Attempt #7 (HarryS)] | 1690 nM | 563 nM | 1040 nM | 895 nM | 718 nM
8 | GGAUAGGACAGAGGAUAUGGAGAGUCUACAAAGUAGGCUCAUAAUCCUUGAAUGGAAGUGAUGUUUCCAGAAGGCUGUCCUAUCG [FmnBX 17 - #SwitchBubble #StaticStem #Palindromic] | 664 nM | 99.9 nM | 103 nM | 101 nM | 119 nM
9 | GGAUAGGACAGAGGAUAUGGUAGUGAUGUUACCAAACUGGUUACUCUUGUCAGAAAACUGGCAUCUCCAGAAGGCUGUCCUAUCG [KL-XFMN-B10] | 594 nM | 109 nM | 123 nM | 135 nM | 127 nM
10 | GGAUAGGACAGAGGAUAUGGUAGUGAUGUUACCAAACUGGUUAUCAAUGUUAGAAAAUUGACAAAACCAGAAGGCUGUCCUAUCG [KL-XFMN-B15] | 129 nM | 65.6 nM | 67.8 nM | 59.2 nM | 66.6 nM
11 | GGAUAGGACUGAGGAUAUGGGCUAGGCAAGAAUAACUUGUCUAGCAAAUCCAUGAGGAGUGAUGUUCCAGAAGGCAGUCCUAUCG [FmnBX 1 U10+A76] | 732 nM | 135 nM | 170 nM | 167 nM | 113 nM
12 | GGAUCCACCAGUGAUGUUGGAAAAUACUCCAAGGAUAUGACGAAAGUCAGAAGGUGGUAGACUGGACAAAGUCCAGUCGGAUCCA [FmnA 27 #SwitchBubble #K4Early] | 531 nM | 205 nM | 527 nM | 537 nM | 504 nM
13 | GGAUCCACCAGUGAUGUUGGAGAAAACUCGAAGGAUAUGACGAAAGUCAGAAGGUCGUAGACUGGACAAAGUCCGGUCGGAUCCA [FmnA 19 G30+C56] | 500 nM | 541 nM | 539 nM | 490 nM | 461 nM
14 | GGAUCCACCAGUGAUGUUGGAGAAAACUCUAAGGAUAUGACGAAAGUCAGAAGGUGGUAGACUGGACAAAGUCCGGUAGGAUCCA [FmnA10 U30+A78] | 682 nM | 201 nM | 617 nM | 216 nM | 250 nM
15 | GGAUGCAUUUUGGAUACCAGUCUAGUGAUGUUAGACUGAUAAUAACGGGCAGCGUUGGCAGACCCUUGGCAGCCAAAAUACUUAA [theeternabot_exclusion_KL_Theo_B_33] | 62.2 nM | 64.6 nM | 54.8 nM | 63.9 nM | 58.9 nM
16 | GGCACUACAGCGGCCGCCACUGUUUAGUCCAUCGCUUGCGAGUGAUGUUCGUAGGUACUGCAGCUCAGGACCGGGCUGUCCUUAC [theeternabot_sameState_KL_Trp_B_34] | 475 nM | 393 nM | 471 nM | 310 nM | 388 nM
17 | GGCACUUUUGGUAGAAAACAUCUACCUCUAUAGGAUAUGCCGAAAGGCAGAAGGAUAGACCUACAGAGUGAUGUUCUGCGUGCCU | 874 nM | 143 nM | 447 nM | 356 nM | 283 nM
18 | GGCAUGGUGACGCGGCGGCCAUGCACUUGGGAGGAUAUGUUUCGUGACAGAAGGCCCAGUGAUGUUGGGUCUGUUCAAAAGGACU [Riteveat] | 491 nM | 170 nM | 192 nM | 174 nM | 141 nM
19 | GGCAUGGUGACGCGGCUGCCAUACGCUUGGGAGGAUAUGUUUCGUGACAGAAGGCCCAGUGAUGUUGGGUCUGUUCAAAAGGACU [Arisus] | 659 nM | 160 nM | 170 nM | 169 nM | 150 nM
20 | GGCCGCAAGGCGAGCGCUCCCACUCCGGAAGGAGCGCCCGUAAGGGCAGGUAGGUCGCCGGAGUGAUGUUCCGGUGGAGGGCUCG [#2 Exclusion - Arginine A Attempt #17 (Inspired by Omei)] | 565 nM | 239 nM | 547 nM | 443 nM | 460 nM
21 | GGCGCAGUGAUGUUGCGGGCCGAGAGUGAUACCAGCCGUAUUUGUGGCCCUUGGCAGCGCAGAACCAGUGAUGUUGGUUACUUGG [Same State Theophylline A GF 22] | 223 nM | 513 nM | 423 nM | 467 nM | 421 nM
22 | GGCGCCAGGAAAGGAUAUCUAAGUCUAUUAUCAAGAAUUGCCUCAAGAUCGGAGUGAUGUUCCCAGAGAGAAGGUUCUAUCCGCU [theeternabot_exclusion_KL_FMN_B_38] | 170 nM | 193 nM | 186 nM | 206 nM | 164 nM
